Assay results published in patent publication US20180258163A1 (Chugai, published 2018).
Residue numbers refer to the chain shown, from its start.

T1: soluble human FcγRIIb (human, UniProt P31994 43-217, limits assumed)
T1 construct: soluble His-tagged form; also called hFcγRIIb
T1 sequence (looked up): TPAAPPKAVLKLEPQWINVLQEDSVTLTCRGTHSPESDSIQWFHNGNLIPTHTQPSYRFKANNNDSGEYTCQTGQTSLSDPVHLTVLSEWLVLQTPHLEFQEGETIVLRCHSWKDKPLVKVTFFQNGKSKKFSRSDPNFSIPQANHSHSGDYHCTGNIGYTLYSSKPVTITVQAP

B1: Ab1H-P844/Ab1L (antibody, human IgG1, kappa, name in EU numbering)
heavy: QVQLVESGGGLVQPGGSLRLSCAASGFTLSNHDMTWVRQAPGKGLEYVSIINTYGNHWYANWASGRFTISRDNSKNTVYLQIDSLRAEDTATYYCARETHHGSSGIDHWGQGTLVTVSSASTKGPSVFPLAPSSKSTSGGTAALGCLVKDYFPEPVTVSWNSGALTSGVHTFPAVLQSSGLYSLSSVVTVPSSSLGTQTYICNVNHKPSNTKVDKKVEPKSCDKTHTCPPCPAPELLGGDSVFLFPPKPKDTLMISRTPEVTCVVVDVSHEDPEVKFNWYVDGVEVHNAKTKPREEQYNATYRVVSVLTVLHQDWLNGKEYKCKVSNKALPAPIEKTISKAKGQPREPQVYTLPPSREEMTKNQVSLTCLVKGFYPSDIAVEWQSNGQPENNYKTTPPVLDSDGSFFLYSKLTVDKSRWQQGNVFSCSVMHEALHNHYTQKSLSLSP
light: DIQMTQSPSSVSASVGDRVTITCQASESIYSGLAWYQQKPGQPPKLLIYDHSTLASGVPSRFSGSGSGTEYALTISSLQPEDFATYYCQHADYAHHSDNVFGGGTKVEIKRTVAAPSVFIFPPSDEQLKSGTASVVCLLNNFYPREAKVQWKVDNALQSGNSQESVTEQDSKDSTYSLSSTLTLSKADYEKHKVYACEVTHQGLSSPVTKSFNRGEC
notes: copies: 2 + 2
B2: Ab1H-P845/Ab1L (antibody, human IgG1, kappa, name in EU numbering)
heavy: B1 heavy with Q384K
light: B1 light
notes: copies: 2 + 2
B3: Ab1H-P846/Ab1L (antibody, human IgG1, kappa, name in EU numbering)
heavy: B1 heavy with Q384E, Q388K
light: B1 light
notes: copies: 2 + 2
B4: Ab1H-P847/Ab1L (antibody, human IgG1, kappa, name in EU numbering)
heavy: B1 heavy with Q384E, N391K
light: B1 light
notes: copies: 2 + 2
B5: Ab1H-P848/Ab1L (antibody, human IgG1, kappa, name in EU numbering)
heavy: B1 heavy with Q384E, S417R
light: B1 light
notes: copies: 2 + 2
B6: Ab1H-P849/Ab1L (antibody, human IgG1, kappa, name in EU numbering)
heavy: B1 heavy with Q384E, Q420R
light: B1 light
notes: copies: 2 + 2
B7: Ab1H-P850/Ab1L (antibody, human IgG1, kappa, name in EU numbering)
heavy: B1 heavy with Q384E, Q421K
light: B1 light
notes: copies: 2 + 2
B8: Ab1H-P851/Ab1L (antibody, human IgG1, kappa, name in EU numbering)
heavy: B1 heavy with Q384E, N423R
light: B1 light
notes: copies: 2 + 2
B9: Ab1H-P852/Ab1L (antibody, human IgG1, kappa, name in EU numbering)
heavy: B1 heavy with Q384E, S426K
light: B1 light
notes: copies: 2 + 2
B10: Ab1H-P854/Ab1L (antibody, name in EU numbering)
heavy: B1 heavy with Q384E, L445R
light: B1 light
notes: copies: 2 + 2
B11: Ab1H-P905/Ab1L (antibody, human IgG1, kappa, name in EU numbering)
heavy: B1 heavy with Q384E, N386R
light: B1 light
notes: copies: 2 + 2
B12: Ab1H-P906/Ab1L (antibody, human IgG1, kappa, name in EU numbering)
heavy: B1 heavy with Q384E, G387R
light: B1 light
notes: copies: 2 + 2
B13: Ab1H-P908/Ab1L (antibody, human IgG1, kappa, name in EU numbering)
heavy: B1 heavy with Q384E, N436R
light: B1 light
notes: copies: 2 + 2
B14: Ab1H-P909/Ab1L (antibody, human IgG1, kappa, name in EU numbering)
heavy: B1 heavy with Q384E, H437R
light: B1 light
notes: copies: 2 + 2
B15: Ab1H-P910/Ab1L (antibody, human IgG1, kappa, name in EU numbering)
heavy: B1 heavy with L311R, Q384E
light: B1 light
notes: copies: 2 + 2
B16: Ab1H-P912/Ab1L (antibody, human IgG1, kappa, name in EU numbering)
heavy: B1 heavy with T309R, Q384E
light: B1 light
notes: copies: 2 + 2
B17: Ab1H-P914/Ab1L (antibody, human IgG1, kappa, name in EU numbering)
heavy: B1 heavy with Q384E, D401R
light: B1 light
notes: copies: 2 + 2
B18: Ab1H-P915/Ab1L (antibody, human IgG1, kappa, name in EU numbering)
heavy: B1 heavy with Q384E, S402R
light: B1 light
notes: copies: 2 + 2
B19: Ab1H-P917/Ab1L (antibody, human IgG1, kappa, name in EU numbering)
heavy: B1 heavy with A329R, Q384E
light: B1 light
notes: copies: 2 + 2
B20: Ab1H-P918/Ab1L (antibody, human IgG1, kappa, name in EU numbering)
heavy: B1 heavy with L330R, Q384E
light: B1 light
notes: copies: 2 + 2
B21: Ab1H-P919/Ab1L (antibody, human IgG1, kappa, name in EU numbering)
heavy: B1 heavy with P331R, Q384E
light: B1 light
notes: copies: 2 + 2
B22: Ab1H-P920/Ab1L (antibody, human IgG1, kappa, name in EU numbering)
heavy: B1 heavy with A332R, Q384E
light: B1 light
notes: copies: 2 + 2
B23: Ab1H-P921/Ab1L (antibody, human IgG1, kappa, name in EU numbering)
heavy: B1 heavy with P333R, Q384E
light: B1 light
notes: copies: 2 + 2
B24: Ab1H-P923/Ab1L (antibody, human IgG1, kappa, name in EU numbering)
heavy: B1 heavy with Q313R, Q384E
light: B1 light
notes: copies: 2 + 2
B25: Ab1H-P924/Ab1L (antibody, human IgG1, kappa, name in EU numbering)
heavy: B1 heavy with N317R, Q384E
light: B1 light
notes: copies: 2 + 2
B26: Ab1H-P925/Ab1L (antibody, human IgG1, kappa, name in EU numbering)
heavy: B1 heavy with Y298R, Q384E
light: B1 light
notes: copies: 2 + 2
B27: Ab1H-P926/Ab1L (antibody, human IgG1, kappa, name in EU numbering)
heavy: B1 heavy with Q297R, Q384E
light: B1 light
notes: copies: 2 + 2
B28: Ab1H-P927/Ab1L (antibody, human IgG1, kappa, name in EU numbering)
heavy: B1 heavy with E296R, Q384E
light: B1 light
notes: copies: 2 + 2
B29: Ab1H-P928/Ab1L (antibody, human IgG1, kappa, name in EU numbering)
heavy: B1 heavy with E295R, Q384E
light: B1 light
notes: copies: 2 + 2
B30: Ab1H-P929/Ab1L (antibody, human IgG1, kappa, name in EU numbering)
heavy: B1 heavy with P293R, Q384E
light: B1 light
notes: copies: 2 + 2
B31: Ab1H-P930/Ab1L (antibody, human IgG1, kappa, name in EU numbering)
heavy: B1 heavy with A289R, Q384E
light: B1 light
notes: copies: 2 + 2
B32: Ab1H-P931/Ab1L (antibody, human IgG1, kappa, name in EU numbering)
heavy: B1 heavy with N288R, Q384E
light: B1 light
notes: copies: 2 + 2
B33: Ab1H-P932/Ab1L (antibody, human IgG1, kappa, name in EU numbering)
heavy: B1 heavy with H287R, Q384E
light: B1 light
notes: copies: 2 + 2
B34: Ab1H-P934/Ab1L (antibody, human IgG1, kappa, name in EU numbering)
heavy: B1 heavy with V284R, Q384E
light: B1 light
notes: copies: 2 + 2
B35: Ab1H-P935/Ab1L (antibody, human IgG1, kappa, name in EU numbering)
heavy: B1 heavy with G283R, Q384E
light: B1 light
notes: copies: 2 + 2
B36: Ab1H-P937/Ab1L (antibody, human IgG1, kappa, name in EU numbering)
heavy: B1 heavy with E274R, Q384E
light: B1 light
notes: copies: 2 + 2
B37: Ab1H-P938/Ab1L (antibody, human IgG1, kappa, name in EU numbering)
heavy: B1 heavy with P273R, Q384E
light: B1 light
notes: copies: 2 + 2

Target: T1, soluble human FcγRIIb
Assay: SPR, Ab-IgE complex over captured hFcγRIIb, pH 7.4, 25C
Protocol: Fc region variant-containing antibody binding assays between soluble human FcγRIIb (a.k.a. “hFcγRIIb”) and antigen-antibody complexes were performed using BIACORE® T200 (GE Healthcare). Soluble hFcγRIIb was produced in the form of a His-tagged molecule using methods known in the art. An appropriate amount of an anti-His antibody was fixed onto Sensor chip CM5 (GE Healthcare) by the amine coupling method using a His capture kit (GE Healthcare) to capture hFcγRIIb. Next, an antibody-antigen complex and a running buffer (as a reference solution) was injected, and interaction was allowed to take place with the hFcγRIIb captured onto the sensor chip. 20 mM N-(2-Acetamido)-2-aminoethanesulfonic acid, 150 mM NaCl, 1.2 mM CaCl₂, and 0.05% (w/v) Tween 20 at pH 7.4 was used as the running buffer, and the respective buffer was also used to dilute the soluble hFcγRIIb. To regenerate the sensor chip, 10 mM glycine-HCl at pH 1.5 was used. All measurements were carried out at 25° C. Analyses were performed based on binding (RU) calculated from sensorgrains obtained by the measurements, and relative values when the binding amount of P600 was defined as 1.00 are shown. To calculate the parameters, the BIACORE® T100 Evaluation Software (GE Healthcare) was used.

Row | Binder | relative binding (RU), P600=1.00 [fold]
1 | B1 | 1.24
2 | B2 | 1.38
3 | B3 | 1.71
4 | B4 | 1.57
5 | B5 | 1.38
6 | B6 | 2.21
7 | B7 | 2.22
8 | B8 | 1.43
9 | B9 | 1.4
10 | B10 | 1.93
11 | B11 | 1.34
12 | B12 | 1.74
13 | B13 | 0.42
14 | B14 | 0.73
15 | B15 | 1.73
16 | B16 | 0.24
17 | B17 | 1.72
18 | B18 | 0.85
19 | B19 | -0.05

Row | Binder | relative binding (RU), P600=1.00 [fold]
20 | B20 | -0.06
21 | B21 | -0.06
22 | B22 | 0.01
23 | B23 | -0.07
24 | B24 | 1.63
25 | B25 | 2.08
26 | B26 | -0.05
27 | B27 | -0.06
28 | B28 | 0.25
29 | B29 | 0.2
30 | B30 | 0.47
31 | B31 | -0.07
32 | B32 | 0.68
33 | B33 | 1.38
34 | B34 | 1.54
35 | B35 | -0.06
36 | B36 | 0.21
37 | B37 | -0.06
